Results as given in PMC8027116 (2021).
Blank lines part the entries; values can stand above or below the binder they belong to.

Tests used:
Test in all cases: activation reporter or marker
[1] = target: T1, preproinsulin peptide on HLA-DQA1*05:01 / HLA-DQB1*02:02 (human)
T1 peptide: YLVCGERGFFYTPKT

[2] = target: T2, preproinsulin peptide on HLA-DQA1*05:01 / HLA-DQB1*02:01 (human)
T2 peptide: YLVCGERGFFYTPKT

[3] = target: T3, preproinsulin peptide on HLA-DRA*01:01 / HLA-DRB1*03:01 (human)
T3 peptide: AEDLQVGQVELGGGP

[4] = target: T4, preproinsulin peptide on HLA-DRA*01:01 / HLA-DRB1*09:01 (human)
T4 peptide: AEDLQVGQVELGGGP

[5] = target: T5, insulin B-chain peptide on HLA-DRA*01:01 / HLA-DRB1*04:01 (human)
T5 peptide: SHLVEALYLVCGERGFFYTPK

[6] = target: T6, preproinsulin peptide on HLA-DRA*01:01 / HLA-DRB1*03:01 (human)
T6 peptide: QKRGIVEQCCTSICS

B2: 55.C10 (TCR)
alpha TRAV26-1 TRAJ26 CDR3: CIVRSHGQNFVF
beta TRBV20-1 TRBJ2-7 CDR3: CSARPGTRNYEQYF
- binding result [3]: no recognition
- binding result [4]: no recognition

B3: 23.G8 (TCR)
alpha TRAV39 TRAJ56 CDR3: CAWRTGANSKLTF
beta TRBV24-1 TRBJ2-2 CDR3: CATGLAANTGELFF
- binding result [5]: no recognition

Results, then the binder that gave them:

- binding result [1]: recognises
- binding result [2]: recognises
B1: 56.B1 (TCR)
alpha TRAV13-1 TRAJ40 CDR3: CAVLSPSGTYKYIF
beta TRBV7-9 TRBJ1-4 CDR3: CASSLMGNPHEKLFF

- binding result [6]: no recognition
B4: 95.A9-1 (TCR)
alpha TRAV9-2 TRAJ18 CDR3: CALRTDRGSTLGRLYF
beta TRBV11-2 TRBJ1-6 CDR3: CASSLQSSYNSPLHF
